The record followed here is patent US20130171217A1, “ENZYMATIC PERACID GENERATION FOR USE IN SKIN CARE PRODUCTS” (E I DU PONT DE NEMOURS AND COMPANY, priority 2010, published 2013).

Residue numbers refer to the chain shown, from its start. Names may count otherwise.

To fix the notation:
B1: SEQ ID NO: 337: L29P variant of Pseudomonas fluorescens hydrolase fused to the charged peptide (GK)5-His6 via a flexible linker (protein)
chain: MSTFVAKDGTQIYFKDWGSGKPVLFSHGWPLDADMWEYQMEYLSSRGYRTIAFDRRGFGRSDQPWTGNDYDTFADDIAQLIEHLDLKEVTLVGFSMGGGDVARYIARHGSARVAGLVLLGAVTPLFGQKPDYPQGVPLDVFARFKTELLKDRAQFISDFNAPFYGINKGQVVSQGVQTQTLQIALLASLKATVDCVTAFAETDFRPDMAKIDVPTLVIHGDGDQIVPFETTGKVAAELIKGAELKVYKDAPHGFAVTHAQQLNEDLLAFLKRGPGSGGAGSPGSAGGPGSGKGKGKGKGKHHHHHH
B2: SEQ ID NO: 331: L29P variant of the hydrolase from Pseudomonas fluorescens fused to hair binding domain HC263 via a flexible linker (protein)
chain: MSTFVAKDGTQIYFKDWGSGKPVLFSHGWPLDADMWEYQMEYLSSRGYRTIAFDRRGFGRSDQPWTGNDYDTFADDIAQLIEHLDLKEVTLVGFSMGGGDVARYIARHGSARVAGLVLLGAVTPLFGQKPDYPQGVPLDVFARFKTELLKDRAQFISDFNAPFYGINKGQVVSQGVQTQTLQIALLASLKATVDCVTAFAETDFRPDMAKIDVPTLVIHGDGDQIVPFETTGKVAAELIKGAELKVYKDAPHGFAVTHAQQLNEDLLAFLKRGPGSGGAGSPGSAGGPGSPSAQSQLPDKHSGLHERAPQRYGPEPEPEPEPIPEPPKEAPVVIEKPKPKPKPKPKPPAHDHKNQKETHQRHAAGSGGGGSPHHHHHH
B3: SEQ ID NO: 333: L29P variant of Pseudomonas fluorescens hydrolase fused to hair binding domain HC263KtoR via a flexible linker (protein)
chain: B2 chain with K300R, K328R, K336R, K338R, K340R, K342R, K344R, K346R, K353R, K356R
B4: SEQ ID NO: 335: L29P variant of Pseudomonas fluorescens hydrolase fused to hair binding domain HC1010 via a flexible linker (protein)
chain: MSTFVAKDGTQIYFKDWGSGKPVLFSHGWPLDADMWEYQMEYLSSRGYRTIAFDRRGFGRSDQPWTGNDYDTFADDIAQLIEHLDLKEVTLVGFSMGGGDVARYIARHGSARVAGLVLLGAVTPLFGQKPDYPQGVPLDVFARFKTELLKDRAQFISDFNAPFYGINKGQVVSQGVQTQTLQIALLASLKATVDCVTAFAETDFRPDMAKIDVPTLVIHGDGDQIVPFETTGKVAAELIKGAELKVYKDAPHGFAVTHAQQLNEDLLAFLKRGPGSGGAGSPGSAGGPGSAQSQLPDKHSGLHERAPQRYGSGTAEIQSSKNPNPHPQRSWTNGSGHNHMQERYTDPQHSPSVNGLGSGHDHKNQKETHQRHAASSHHHHHH
B5: SEQ ID NO: 325: S54V variant of Mycobacterium smegmatis aryl esterase fused to hair binding domain HC263KtoR via a flexible linker (protein)
chain: MAKRILCFGDSLTWGWVPVEDGAPTERFAPDVRWTGVLAQQLGADFEVIEEGLVARTTNIDDPTDPRLNGASYLPSCLATHLPLDLVIIMLGTNDTKAYFRRTPLDIALGMSVLVTQVLTSAGGVGTTYPAPKVLVVSPPPLAPMPHPWFQLIFEGGEQKTTELARVYSALASFMKVPFFDAGSVISTDGVDGIHFTEANNRDLGVALAEQVRSLLGPGSGGAGSPGSAGGPGSPSAQSQLPDRHSGLHERAPQRYGPEPEPEPEPIPEPPREAPVVIERPRPRPRPRPRPPAHDHRNQRETHQRHAAGSGGGGSPHHHHHH
B6: SEQ ID NO: 329: S54V variant of Mycobacterium smegmatis aryl esterase fused to the charged peptide (GK)5-His6 via a flexible linker (protein)
chain: MAKRILCFGDSLTWGWVPVEDGAPTERFAPDVRWTGVLAQQLGADFEVIEEGLVARTTNIDDPTDPRLNGASYLPSCLATHLPLDLVIIMLGTNDTKAYFRRTPLDIALGMSVLVTQVLTSAGGVGTTYPAPKVLVVSPPPLAPMPHPWFQLIFEGGEQKTTELARVYSALASFMKVPFFDAGSVISTDGVDGIHFTEANNRDLGVALAEQVRSLLGPGSGGAGSPGSAGGPGSGKGKGKGKGKHHHHHH
B7: SEQ ID NO: 319: acetyl xylan esterase from Lactococcus lactis fused at its C-terminus to hair binding domain HC263 via a flexible linker (protein)
chain: MTKINNWQDYQGSSLKPEDFDKFWDEKINLVSNHQFEFELIEKNLSSKVVNFYHLWFTAIDGAKIHAQLIVPKNLKEKYPAILQFHGYHCDSGDWVDKIGIVAEGNVVLALDCRGQGGLSQDNIQTMGMTMKGLIVRGIDEGYENLYYVRQFMDLITATKILSEFDFVDETNISAQGASQGGALAVACAALSPLIKKVTATYPFLSDYRKAYELGAEESAFEELPYWFQFKDPLHLREDWFFNQLEYIDIQNLAPRIKAEVIWILGGKDTVVPPITQMAAYNKIQSKKSLYVLPEYGHEYLPKISDWLRENQGPGSGGAGSPGSAGGPGSPSAQSQLPDKHSGLHERAPQRYGPEPEPEPEPIPEPPKEAPVVIEKPKPKPKPKPKPPAHDHKNQKETHQRHAAGSGGGGSPHHHHHH
B8: SEQ ID NO: 327: S54V variant of Mycobacterium smegmatis aryl esterase fused to hair binding domain HC1010 via a flexible linker (protein)
chain: MAKRILCFGDSLTWGWVPVEDGAPTERFAPDVRWTGVLAQQLGADFEVIEEGLVARTTNIDDPTDPRLNGASYLPSCLATHLPLDLVIIMLGTNDTKAYFRRTPLDIALGMSVLVTQVLTSAGGVGTTYPAPKVLVVSPPPLAPMPHPWFQLIFEGGEQKTTELARVYSALASFMKVPFFDAGSVISTDGVDGIHFTEANNRDLGVALAEQVRSLLGPGSGGAGSPGSAGGPGSAQSQLPDKHSGLHERAPQRYGSGTAEIQSSKNPNPHPQRSWTNGSGHNHMQERYTDPQHSPSVNGLGSGHDHKNQKETHQRHAASSHHHHHH
B9: SEQ ID NO: 321: acetyl xylan esterase from Mesorhizobium loti fused at its C-terminus to hair binding domain HC263 via a flexible linker (protein)
chain: MPFPDLIQPELGAYVSSVGMPDDFAQFWTSTIAEARQAGGEVSIVQAQTTLKAVQSFDVTFPGYGGHPIKGWLILPTHHKGRLPLVVQYIGYGGGRGLAHEQLHWAASGFAYFRMDTRGQGSDWSVGETADPVGSTSSIPGFMTRGVLDKNDYYYRRLFTDAVRAIDALLGLDFVDPERIAVCGDSQGGGISLAVGGIDPRVKAVMPDVPFLCDFPRAVQTAVRDPYLEIVRFLAQHREKKAAVFETLNYFDCVNFARRSKAPALFSVALMDEVCPPSTVYGAFNAYAGEKTITEYEFNNHEGGQGYQERQQMTWLSRLFGVGGPGSGGAGSPGSAGGPGSPSAQSQLPDKHSGLHERAPQRYGPEPEPEPEPIPEPPKEAPVVIEKPKPKPKPKPKPPAHDHKNQKETHQRHAAGSGGGGSPHHHHHH

One series can be described thus: Perhydrolase activity of targeted hydrolases, ABTS assay. Type of series: biochemical. The settings on record: 1 m Na acetate at pH 5.5 instead of triacetin. As to the method:
The ABTS assay was performed as follows: hair samples treated as described above were transferred to new 2-mL microcentrifuge tubes (Eppendorf Protein LoBind; Eppendorf North America, Hauppauge, N.Y.) To each tube was added 480 μL of PAH buffer ([…]), 14 μL of 39% hydrogen peroxide (Sigma 3410), and 6 μL triacetin (Sigma-Aldrich W200700). The perhydrolase reaction was allowed to proceed for 10 minutes at room temperature (˜22-25° C.). The reaction was stopped by diluting aliquots 10×, 100× and 1000× with 10 mM phosphoric acid. For detection 50 μL of 1 M acetic acid, 50 μL of 40 mg/mL potassium iodide, and 50 μL of 4 mM ABTS (2,2′-azino-bis(3-ethylbenzthiazoline-6-sulphonic acid; Sigma, St Louis, Mo.) were added to 50 μL of the above dilutions. Color was allowed to develop for 10 minutes and read in a spectrophotometer at 405 nm. Values from no-enzyme controls were subtracted to yield values attributable only to enzyme activity. A standard curve of OD 405 nm vs PAA concentration in ppm yielded a conversion factor of 8.75, such that an OD 405 nm of 1.0 corresponded to approximately 8.75 ppm PAA. This value was then multiplied by the appropriate dilution to arrive at the PAA concentration in the perhydrolase reaction.
The perhydrolase activity of the enzymes targeted to hair with a variety of targeting domains produced as described in Example 32 was measured with the ABTS assay.
B1 gave a Specific perhydrolase activity of 2.65 µmol/mg/min.

On to B2, for which the Specific perhydrolase activity came to 0.37 µmol/mg/min.

The molecule B3 had a Specific perhydrolase activity of 1.45 µmol/mg/min.

Regarding B4, the Specific perhydrolase activity was 1.5 µmol/mg/min.

Still in this series, the particulars now being: triacetin at pH 7.5.
B5 returned a Specific perhydrolase activity of 46 µmol/mg/min.

For B6, the Specific perhydrolase activity was 264 µmol/mg/min.

In turn, B7 registered a Specific perhydrolase activity of 99 µmol/mg/min.

Consider B8, for which the Specific perhydrolase activity stood at 20 µmol/mg/min.

B9 returned a Specific perhydrolase activity of 34 µmol/mg/min.
